# Source: the RNAGym collection of RNA variant scans (doi:10.1021/acssynbio.7b00057)
# B1: Pistol ribozyme (parent)
# chain: GGGUCGUUGUUCCAUAAUCGCGUGGAUAUGGCACGCAAGUUUCUACCGGGCACCGUAAAUGUCCGACUGGAGCCGUUCGGGCGGCUAUAAACAGACCUCAGGCCCGAAGCGUGGCGGCACCUGCCGCCGGUGGUAAAAAAGAUCGGAAGAGCACACGUCU
# Variants of: B1
# Experiment: aptazyme ON/OFF ratio, guanine; higher = stronger switching; co-transcriptional cleavage with and without guanine
row,Variant,aptazyme ON/OFF ratio
1,U7G U8A U10C U11A C12U C13A,1.3
2,U7G U8A U10C U11A C12U C13G,1.19
3,U7G U8A U10C U11G C12U C13A,1.2
4,U7G U8A U10C U11G C12U C13U,1.42
5,U7G U8A U10C U11G C12U C13G,1.29
6,U7G U8A U10G U11C C12A C13A,1.43
7,U7G U8A U10G U11C C12A C13G,1.17
8,U7G U8A U10G U11C C12A C13U,1.2
9,U7G U8C G9A U10A,3.78
10,U7G U8C G9A U10C,3.27
11,U7G U8C G9A U10G,3.04
12,U7G U8C G9A U10A U11C C12U C13G,1.13
13,U7G U8C G9A U10A U11C C12U C13A,1.14
14,U7G U8C G9A U10A U11C C12U C13U,1.16
15,U7G U8A U10C U11G C12A C13A,1.19
16,U7G U8A U10C U11G C12A C13G,1.19
17,U7G U8A U10C U11G C12A C13U,1.37
18,U7G U8C G9A U10A U11C C12A,1.31
19,U7G U8C G9A U10A U11C C12U,1.11
20,U7G U8C G9A U10A U11C C12G,1.13
21,U7G U8C G9A C12A,1.06

row,Variant,aptazyme ON/OFF ratio
1,U7G U8C G9A C12U,1.07
2,U7G U8C G9A C12G,1.07
3,U7G U8A U10C C13G,1.09
4,U7G U8A U10C C13U,1.49
5,U7G U8A U10C C13A,1.23
6,U7G U8C G9A U10A U11C C12A C13G,1.25
7,U7G U8C G9A U10A U11C C12A C13A,1.13
8,U7G U8C G9A U10A U11C C12A C13U,1.13
9,U7G U8A U10C U11C C12U C13U,1.13
10,U7G U8A U10C U11C C12U C13G,1.25
11,U7G U8A U10C U11C C12U C13A,1.14
12,U7G U8A U11A C12G C13U,1.21
13,U7G U8A U11A C12G C13A,1.08
14,U7G U8A U11A C12G C13G,1.18
15,U7G U8A U10G U11C C12U,1.27
16,U7G U8A U10G U11C C12G,1.02
17,U7G U8A U10G U11C C12A,1.48
18,U7G U8A U11C C12U C13U,1.47
19,U7G U8A U11C C12U C13G,1.09
20,U7G U8A U11C C12U C13A,1.32
21,U7G U8A U11C C12G C13A,1.22

row,Variant,aptazyme ON/OFF ratio
1,U7G U8A U11C C12G C13U,1.32
2,U7G U8A U11C C12G C13G,1.2
3,U7G U8A U11C C13U,1.2
4,U7G U8A U11C C13G,1.11
5,U7G U8A U11C C13A,1.32
6,U7G U8A U11C,2.05
7,U7G U8A U11A,2.25
8,U7G U8A U11G,1.24
9,U7G U8A U10G U11A C13A,1.18
10,U7G U8A U10G U11A C13U,1.4
11,U7G U8A U10G U11A C13G,1.23
12,U7G U8C G9A U10C C12G C13U,1.28
13,U7G U8C G9A U10C C12G C13A,1.12
14,U7G U8C G9A U10C C12G C13G,1.19
15,U7G U8A U10C U11C,1.11
16,U7G U8A U10C U11A,2.3
17,U7G U8A U10C U11G,2.09
18,U7G U8C G9A U10A U11A C12A C13A,1.21
19,U7G U8C G9A U10A U11A C12A C13G,1.12
20,U7G U8C G9A U10A U11A C12A C13U,1.17
21,U7G U8C C12A C13G,1.1

row,Variant,aptazyme ON/OFF ratio
1,U7G U8C C12A C13U,1.08
2,U7G U8C C12A C13A,1.13
3,U7G U8C G9A U10A U11G C13U,1.23
4,U7G U8C G9A U10A U11G C13A,1.13
5,U7G U8C G9A U10A U11G C13G,1.04
6,U7G U8C G9A U10G C12A,1.18
7,U7G U8C G9A U10C U11A C12G C13A,1.06
8,U7G U8C G9A U10C U11A C12G C13U,1.33
9,U7G U8C G9A U10C U11A C12G C13G,1.21
10,U7G U8A U10G U11C C12U C13A,1.46
11,U7G U8A U10G U11C C12U C13U,1.1
12,U7G U8A U10G U11C C12U C13G,1.52
13,U7G U8C G9A U10A U11A C12U C13G,1.15
14,U7G U8C G9A U10A U11A C12U C13U,1.14
15,U7G U8C G9A U10A U11A C12U C13A,1.13
16,U7G U8C G9A U10C U11A C12U C13U,1.02
17,U7G U8C G9A U10C U11A C12U C13A,1.08
18,U7G U8C G9A U10C U11A C12U C13G,1.06
19,U7G U8A U11G C12U C13G,1.26
20,U7G U8A U11G C12U C13A,1.34
21,U7G U8A U11G C12U C13U,1.17
